Substitutions are numbered along the chain they refer to.
B1: xi16E5D10 hIgG1 (antibody, V domains shown)
VH: QVQLQQPGAELVKPGASVMMSCKASGYTFSNHNLHWLKKTPGQGLDWIGAIYPGNGDTSYNQKFKGRATLTVDKSSNTAYMQFSSLTSEDSAVFYCARGKYGNGAMDYWGQGTAVTVSS
VL: DIVMTQSHKFMSTSVGDRVSITCRASQDVGTAVVWYQQKLGQSPKLLFDWASSRHTGVPDRFTGSGSGTDFTLTITDVQSEDLADYFCQQYSRQPLTFGAGTKLELK
notes: chimeric, hIgG1
B2: xi18G1H4 hIgG1 (antibody, V domains shown)
VH: QVQLQQPGAELVKPGASVRMSCKASAYTFTTYNLHWVKQTPGQGLEWIGAISPGNGVTSYNQKFRGKATLTADKSSSTAYMQLSSLTSEDSAVYYCARGYGYSVGAMDYWGQGTSVTVSS
VL: DIQMTQTTSSLSASLGDRVNISCSASQGIGNFLNWYQQKPDGTVKLLIYYTSSLHSGVPPRFSGSGSGTDYSLTISNLEPEDIATYYCQQYHKLPLTFGAGTKLELK
notes: chimeric, hIgG1
B3: xi28G3C6B9 hIgG1 (antibody, V domains shown)
VH: QVQLQQPGAEVVKPGASVKMSCKASGYTFTSYIIHWVKQAPGQGLEWIGAIYPGNGDTSYSQRFKGKAKLTADKSSSTAYMQLNSLTSEDSVVYYCARGNNYGSPAWFGYWGQGTLVTVSA
VL: DIVLTQSPVTLSVTPGDRVSLSCRASQSIGNFLYWYQQKSHESPRLLIKYASQSMSGIPSRFSGSGSGTDFTLSISRVETEDFGMYFCQQSNSWPVTFGAGTKLELK
notes: chimeric, hIgG1
B4: xi84F2D10 hIgG1 (antibody, V domains shown)
VH: QVQLQQPGAVLVKPGASVKMSCKASGYTFTSYNLHWVKQTPGQGLEWIGAIYPGNGDTSYIQKFKGKATLTADKSSSTAYMQLSSLTSEDSAVYYCARGKYGNYEGFAYWGQGTLVTVSA
VL: DILLTQSPAILSVSPGERVSISCRASQSIGTSIYWYQQRRNGSPRLLIKFASESISGIPSRFSGSGSGTDFTLSINSVESEDIADYYCQQNNRWPFTFGSGTKLEIK
notes: chimeric, hIgG1
B5: 63A11D5B4.p1.z16 hIgG1 (antibody, V domains shown)
VH: QVQLQQSGAEVVKPGASVKMSCKTSGYTFITYNMHWVKQAPGQGREWIGAIYPGSGDTSYNQKFKGRATLTADKSTSTAYMELSSLRSEDTAVYYCSISTIITTGAVDYWGQGTSVTVSS
VL: DIVMTQSPSSLSTSVGDRVTITCKASQDVGTAVAWYQQKPGQSPKLLIYWTSTRHTGVPDRFTGSGSGTDFTLIIRSLQPEDVATYFCQQYSRIPLTFGSGTKVEIK
notes: humanized hIgG1

Legend:
human SLC34A2 [1] = molecular target: T1, human SLC34A2 (human, UniProt O95436 1-690); experiment: cell-based or functional assay
T1 sequence (looked up): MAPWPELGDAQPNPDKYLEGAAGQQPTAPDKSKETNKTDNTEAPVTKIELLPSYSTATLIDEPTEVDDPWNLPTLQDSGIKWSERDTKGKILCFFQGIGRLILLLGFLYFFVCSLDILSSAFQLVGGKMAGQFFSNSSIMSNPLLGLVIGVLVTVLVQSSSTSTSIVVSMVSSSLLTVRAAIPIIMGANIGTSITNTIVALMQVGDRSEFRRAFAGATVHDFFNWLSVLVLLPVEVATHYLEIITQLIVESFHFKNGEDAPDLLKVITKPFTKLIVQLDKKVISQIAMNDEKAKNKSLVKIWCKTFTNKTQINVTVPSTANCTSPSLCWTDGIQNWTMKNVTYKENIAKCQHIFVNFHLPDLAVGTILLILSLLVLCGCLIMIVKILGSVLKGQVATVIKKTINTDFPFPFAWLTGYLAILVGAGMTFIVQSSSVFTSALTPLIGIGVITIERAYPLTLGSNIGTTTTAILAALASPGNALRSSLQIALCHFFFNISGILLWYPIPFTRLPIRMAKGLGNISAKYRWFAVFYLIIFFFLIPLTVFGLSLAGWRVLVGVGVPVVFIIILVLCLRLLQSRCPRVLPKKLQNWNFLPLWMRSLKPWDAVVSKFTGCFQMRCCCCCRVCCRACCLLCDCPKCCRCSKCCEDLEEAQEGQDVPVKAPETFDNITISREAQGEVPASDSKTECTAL

human SLC34A2 [2] = molecular target: T1, human SLC34A2; experiment: FACS, HEK293/human SLC34A2 cells
Protocol: (§1) Briefly, OVCAR3 cells or HEK293 cells expressing human SLC34A2 were incubated with chimeric antibodies (from 200 nM, 4 folds dilution, 8 points). After incubation at 4° C. for 60 minutes, the cells were washed with FACS buffer twice, then stained with fluorescent conjugated secondary antibody at 4° C. for 30 minutes. After that the cells were washed twice and analyzed by flow cytometry.

Cynomolgus SLC34A2 = molecular target: T2, Cynomolgus SLC34A2 (Cynomolgus, UniProt A0A2K5UHY1 1-690); experiment: FACS, cells expressing Cynomolgus SLC34A2
T2 construct: whole, on cells; also called Cyno SLC34A2
T2 sequence: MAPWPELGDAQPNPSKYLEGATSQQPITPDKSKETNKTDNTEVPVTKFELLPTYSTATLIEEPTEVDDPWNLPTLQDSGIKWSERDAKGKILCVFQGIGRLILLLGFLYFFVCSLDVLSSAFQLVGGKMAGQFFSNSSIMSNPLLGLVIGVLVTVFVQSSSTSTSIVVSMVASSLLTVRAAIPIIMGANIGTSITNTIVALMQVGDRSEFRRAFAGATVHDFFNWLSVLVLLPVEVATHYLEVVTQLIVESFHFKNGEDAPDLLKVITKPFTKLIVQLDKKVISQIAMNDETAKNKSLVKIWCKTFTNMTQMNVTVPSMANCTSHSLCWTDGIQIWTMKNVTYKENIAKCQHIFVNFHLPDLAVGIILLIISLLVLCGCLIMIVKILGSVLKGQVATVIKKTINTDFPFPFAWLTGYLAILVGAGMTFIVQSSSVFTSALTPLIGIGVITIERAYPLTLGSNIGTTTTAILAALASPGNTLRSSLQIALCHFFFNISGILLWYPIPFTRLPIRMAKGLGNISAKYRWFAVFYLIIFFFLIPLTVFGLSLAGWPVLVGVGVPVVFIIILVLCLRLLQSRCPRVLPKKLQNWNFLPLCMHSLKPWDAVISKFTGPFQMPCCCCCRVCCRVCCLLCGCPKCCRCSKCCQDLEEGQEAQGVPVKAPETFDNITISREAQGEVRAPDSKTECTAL

human SLC34A2 [3] = molecular target: T1, human SLC34A2; experiment: FACS, OVCAR3 cells
Protocol: In this example, cell based binding of chimeric antibodies (hIgG1) prepared from the murine antibodies on human SLC34A2 expressing cells were assessed using flow cytometry.
as §1

human SLC34A2 [4] = molecular target: T1, human SLC34A2; experiment: cell-based or functional assay; remark: listed apart in the source
Rhesus SLC34A2 = molecular target: T3, Rhesus SLC34A2 (Rhesus, UniProt F7HDA3 1-690); experiment: FACS, HEK293/Rhesus SLC34A2 cells
T3 construct: whole, on cells
T3 sequence: T2 sequence with H325P, V530I
Protocol: Briefly, the Rhesus SLC34A2 expressing HEK293 engineering cells (HEK293/Rhesus_SLC34A2) were incubated with chimeric Abs (from 200 nM, 4 folds dilution, 8 points). After incubation at 4° C. for 60 minutes, the cells were washed with FACS buffer twice, then stained with fluorescent conjugated secondary antibody at 4° C. for 30 minutes. After that the cells were washed twice and analyzed by flow cytometry.

human SLC34A2 [5] = molecular target: T1, human SLC34A2; experiment: FACS, RMG-1 cells
Protocol: Based on the foregoing cell-based binding results, some of the chimeric antibodies were selected for further cell based binding on human SLC34A2 expressing cells using flow cytometry. RMG-1 cells were incubated with the selected chimeric antibodies (from 200 nM, 4 folds dilution, 8 points). After incubation at 4° C. for 60 minutes, the cells were washed with FACS buffer twice, then stained with fluorescent conjugated secondary antibody at 4° C. for 30 minutes. Afterwards the cells were washed twice and analyzed by flow cytometry.

human SLC34A2 [6] = molecular target: T1, human SLC34A2; experiment: FACS, OVCAR3 cells; remark: listed apart in the source

| Binder | cytotoxicity EC50 (human SLC34A2 [1]) | cytotoxicity Inhibition % (human SLC34A2 [1]) | EC50 (human SLC34A2 [2]) | Top (MFI) (human SLC34A2 [2]) | EC50 (Cynomolgus SLC34A2) | Top (MFI) (Cynomolgus SLC34A2) | EC50 (human SLC34A2 [3]) | Top (MFI) (human SLC34A2 [3]) | ADCC reporter EC50 (human SLC34A2 [4]) | ADCC reporter Top (MFI) (human SLC34A2 [4]) | EC50 (Rhesus SLC34A2) | Top (MFI) (Rhesus SLC34A2) | EC50 (human SLC34A2 [5]) | Top (MFI) (human SLC34A2 [5]) | EC50 (human SLC34A2 [6]) | Top (MFI) (human SLC34A2 [6]) |
| --- | --- | --- | --- | --- | --- | --- | --- | --- | --- | --- | --- | --- | --- | --- | --- | --- |
| B1 | 0.78 nM | 93.1% | 2.29 nM | 47500 MFI | 3.79 nM | 3730 MFI | 4.66 nM | 27600 MFI | 2.1 nM | 238000 MFI | 2.72 nM | 14800 MFI | 3.76 nM | 9500 MFI |  |  |
| B2 | 0.36 nM | 82.7% | 0.86 nM | 106000 MFI | 4.93 nM | 4090 MFI | 2.75 nM | 42500 MFI | 2.2 nM | 228000 MFI | 2.9 nM | 14300 MFI | 7.91 nM | 9800 MFI |  |  |
| B3 | 0.36 nM | 86.4% | 1.88 nM | 107000 MFI | 2.81 nM | 3770 MFI | 4.27 nM | 43000 MFI | 6.4 nM | 569000 MFI | 3.19 nM | 13400 MFI | 4.73 nM | 9420 MFI |  |  |
| B4 | 0.61 nM | 102% | 1.37 nM | 109000 MFI | 68.5 nM | 1280 MFI | 3.84 nM | 40500 MFI | 2.5 nM | 409000 MFI | 46 nM | 8840 MFI | 4.33 nM | 8600 MFI |  |  |
| B5 |  |  |  |  |  |  |  |  |  |  |  |  |  |  | 11.4 nM | 29500 MFI |

From patent US20240301052A1 (LANOVA MEDICINES DEVELOPMENT, published 2024)
